# Laboratory results from paper PMC6061791 (Nucleic Acids Research, 2018).
# Substitutions are numbered along the chain they refer to. Names and notes keep the numbering of the source.
# T1: RppH;DapF (Escherichia coli DH5alpha;Escherichia …, UniProt P0A776;P0A6K1 1-176;1-274, |)
# T1 sequence 1: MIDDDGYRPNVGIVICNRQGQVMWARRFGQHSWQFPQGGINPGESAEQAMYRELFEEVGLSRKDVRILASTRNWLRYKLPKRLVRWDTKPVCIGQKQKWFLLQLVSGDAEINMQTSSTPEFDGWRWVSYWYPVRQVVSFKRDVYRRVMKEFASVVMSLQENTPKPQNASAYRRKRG
# T1 sequence 2: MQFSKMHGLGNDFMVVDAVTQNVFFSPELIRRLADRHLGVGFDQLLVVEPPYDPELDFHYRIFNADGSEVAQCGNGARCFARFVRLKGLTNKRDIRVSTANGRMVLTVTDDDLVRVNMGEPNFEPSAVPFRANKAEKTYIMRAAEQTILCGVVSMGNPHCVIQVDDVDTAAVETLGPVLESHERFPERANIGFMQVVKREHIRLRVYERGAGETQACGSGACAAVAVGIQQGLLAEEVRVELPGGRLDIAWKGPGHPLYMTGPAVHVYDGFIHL
# T2: DapF (Escherichia coli DH5alpha, UniProt P0A6K1 1-274)
# T2 sequence: T1 sequence 2
# T3: RppH (Escherichia coli DH5alpha, UniProt P0A776 1-176)
# T3 sequence: T1 sequence 1
# T4: DapF (diaminopimelate epimerase), wild type, N-terminal 6×His tag (Escherichia coli, UniProt P0A6K1 1-274)
# T4 sequence (looked up): T1 sequence 2
# T5: DapF (Y268A), N-terminal 6×His tag (Escherichia coli, UniProt P0A6K1 1-274, Y268A)
# T5 sequence (looked up): T1 sequence 2 with Y268A
# T6: DapF (T20A), N-terminal 6×His tag (Escherichia coli, UniProt P0A6K1 1-274, T20A)
# T6 sequence (looked up): T1 sequence 2 with T20A
# T7: DapF (N22A), N-terminal 6×His tag (Escherichia coli, UniProt P0A6K1 1-274, N22A)
# T7 sequence (looked up): T1 sequence 2 with N22A
# T8: DapF (L89A), N-terminal 6×His tag (Escherichia coli, UniProt P0A6K1 1-274, L89A)
# T8 sequence (looked up): T1 sequence 2 with L89A
# B1: RppH (RNA pyrophosphohydrolase), wild type, GST tag removed (enzyme, Escherichia coli, UniProt P0A776 1-176, looked up)
# chain: T1 sequence 1
# B2: RppH (R145A), GST tag removed (enzyme, Escherichia coli, UniProt P0A776 1-176, looked up)
# chain: T1 sequence 1 with R145A
# B3: RppH (S128A), GST tag removed (enzyme, Escherichia coli, UniProt P0A776 1-176, looked up)
# chain: T1 sequence 1 with S128A
# B4: RppH (D142A), GST tag removed (enzyme, Escherichia coli, UniProt P0A776 1-176, looked up)
# chain: T1 sequence 1 with D142A
# Key:
# RppH;DapF = target: T1, RppH;DapF; assay: ITC
# DapF = target: T2, DapF; assay: ITC
# RppH = target: T3, RppH; assay: ITC
# [1] = target: T4, DapF (diaminopimelate epimerase), wild …; assay: AUC
# [2] = target: T5, DapF (Y268A), N-terminal 6×His tag; assay: AUC
# [3] = target: T4, DapF (diaminopimelate epimerase), wild …; assay: ITC
# [4] = target: T6, DapF (T20A), N-terminal 6×His tag; assay: ITC
# [5] = target: T7, DapF (N22A), N-terminal 6×His tag; assay: ITC
# [6] = target: T8, DapF (L89A), N-terminal 6×His tag; assay: ITC
binder,measurement,setting,value
"AGAACAAC (ssRNA, 5'-triphosphate) [8 nt RNA pppAGAACAAC]",Kd,RppH;DapF,~120 µM
same,binding result,DapF,no binding
same,binding result,RppH,binds
B1,stoichiometry N,[1],1 RppH per DapF (2:2 heterotetramer)
same,stoichiometry N,[2],1 RppH per DapF (1:1 heterodimer)
same,Kd,[3],0.8 ± 0.4 nM
same,dH,[3],-13 ± 0.1 kcal⋅mol^-1
same,stoichiometry N,[3],0.95
same,Kd,[4],4.2 ± 1.8 nM
same,dH,[4],-14.4 ± 0.2 kcal⋅mol^-1
same,stoichiometry N,[4],0.97
same,Kd,[5],0.3 ± 0.1 nM
same,dH,[5],-16.4 ± 0.1 kcal⋅mol^-1
same,stoichiometry N,[5],0.96
same,Kd,[6],5.2 ± 0.9 nM
same,dH,[6],-10.4 ± 0.1 kcal⋅mol^-1
same,stoichiometry N,[6],1.06
B2,Kd,[3],2.3 ± 1 nM
same,dH,[3],-14.6 ± 0.1 kcal⋅mol^-1
same,stoichiometry N,[3],1.01
B3,Kd,[3],12.8 ± 6 nM
same,dH,[3],-12.5 ± 0.3 kcal⋅mol^-1
same,stoichiometry N,[3],0.85
B4,Kd,[3],4.8 ± 1.8 nM
same,dH,[3],-11 ± 0.2 kcal⋅mol^-1
same,stoichiometry N,[3],1.05
